*1 amine or outer side, *2 acyl side, *3 side chain or, on linkers, in order; H or OH if unused. Where no end group is shown, it is not given here. Side-chain parts run from the residue outwards. The star is where a group is joined. C18 diacid = O=C(O)CCCCCCCCCCCCCCCCC(=O)*; C16 diacid = O=C(O)CCCCCCCCCCCCCCC(=O)*; γGlu = O=C(O)[C@H](CCC(=O)[*:2])N[*:1]; AEEA = NCCOCCOCC(=O)O

The chains are these.
T1: human GIP receptor (human, UniProt P48546 22-466)
T1 sequence (looked up): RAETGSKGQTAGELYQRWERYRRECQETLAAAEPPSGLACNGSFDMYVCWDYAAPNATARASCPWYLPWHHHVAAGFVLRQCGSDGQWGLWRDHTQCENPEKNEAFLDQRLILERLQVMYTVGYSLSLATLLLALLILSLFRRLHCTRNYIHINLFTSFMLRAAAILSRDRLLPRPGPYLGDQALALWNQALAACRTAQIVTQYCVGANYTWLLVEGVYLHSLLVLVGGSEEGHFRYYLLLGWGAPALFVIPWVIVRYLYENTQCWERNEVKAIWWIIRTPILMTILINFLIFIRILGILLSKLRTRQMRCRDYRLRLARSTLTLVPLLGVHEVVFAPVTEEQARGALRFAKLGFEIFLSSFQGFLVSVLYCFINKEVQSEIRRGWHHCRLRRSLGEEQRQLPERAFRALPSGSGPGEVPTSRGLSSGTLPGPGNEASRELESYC

B1: AT234 (peptide)
peptide: TFISDYSIALDRIKQQDFVNWLLAQR-NH2
modifications: not fully specified (residue 14); printed as TFISDYSIALDRIKQQDFVNWLLAQR-(AEEAc +γ-Glu)-C16-diacid/K18
B2: AT267 (peptide)
peptide: PGTFISDYSIAMDRIKQQDFVNWLLAQR
HELM: PEPTIDE1{P.G.T.F.I.S.D.Y.S.I.A.M.D.R.I.K.Q.Q.D.F.V.N.W.L.L.A.Q.R}|PEPTIDE2{[O=C(O)CCCCCCCCCCCCCCC(=O)[*:2]].[gGlu]}$PEPTIDE1,PEPTIDE2,16:R3-2:R2$$$V2.0; N-terminus assumed
SMILES: CC[C@H](C)[C@H](NC(=O)[C@H](CO)NC(=O)[C@H](Cc1ccc(O)cc1)NC(=O)[C@H](CC(=O)O)NC(=O)[C@H](CO)NC(=O)[C@@H](NC(=O)[C@H](Cc1ccccc1)NC(=O)[C@@H](NC(=O)CNC(=O)[C@@H]1CCCN1)[C@@H](C)O)[C@@H](C)CC)C(=O)N[C@@H](C)C(=O)N[C@@H](CCSC)C(=O)N[C@@H](CC(=O)O)C(=O)N[C@@H](CCCNC(=N)N)C(=O)N[C@H](C(=O)N[C@@H](CCCCNC(=O)CC[C@H](NC(=O)CCCCCCCCCCCCCCC(=O)O)C(=O)O)C(=O)N[C@@H](CCC(N)=O)C(=O)N[C@@H](CCC(N)=O)C(=O)N[C@@H](CC(=O)O)C(=O)N[C@@H](Cc1ccccc1)C(=O)N[C@H](C(=O)N[C@@H](CC(N)=O)C(=O)N[C@@H](Cc1c[nH]c2ccccc12)C(=O)N[C@@H](CC(C)C)C(=O)N[C@@H](CC(C)C)C(=O)N[C@@H](C)C(=O)N[C@@H](CCC(N)=O)C(=O)N[C@@H](CCCNC(=N)N)C(=O)O)C(C)C)[C@@H](C)CC
B3: AT233 (peptide)
peptide: TFISDYSIALDRIKQQDFVNWLLAQR
HELM: PEPTIDE1{T.F.I.S.D.Y.S.I.A.L.D.R.I.K.Q.Q.D.F.V.N.W.L.L.A.Q.R.[am]}|PEPTIDE2{[O=C(O)CCCCCCCCCCCCCCC(=O)[*:2]].[gGlu]}$PEPTIDE1,PEPTIDE2,14:R3-2:R2$$$V2.0; N-terminus assumed
SMILES: CC[C@H](C)[C@H](NC(=O)[C@H](CO)NC(=O)[C@H](Cc1ccc(O)cc1)NC(=O)[C@H](CC(=O)O)NC(=O)[C@H](CO)NC(=O)[C@@H](NC(=O)[C@H](Cc1ccccc1)NC(=O)[C@@H](N)[C@@H](C)O)[C@@H](C)CC)C(=O)N[C@@H](C)C(=O)N[C@@H](CC(C)C)C(=O)N[C@@H](CC(=O)O)C(=O)N[C@@H](CCCNC(=N)N)C(=O)N[C@H](C(=O)N[C@@H](CCCCNC(=O)CC[C@H](NC(=O)CCCCCCCCCCCCCCC(=O)O)C(=O)O)C(=O)N[C@@H](CCC(N)=O)C(=O)N[C@@H](CCC(N)=O)C(=O)N[C@@H](CC(=O)O)C(=O)N[C@@H](Cc1ccccc1)C(=O)N[C@H](C(=O)N[C@@H](CC(N)=O)C(=O)N[C@@H](Cc1c[nH]c2ccccc12)C(=O)N[C@@H](CC(C)C)C(=O)N[C@@H](CC(C)C)C(=O)N[C@@H](C)C(=O)N[C@@H](CCC(N)=O)C(=O)N[C@@H](CCCNC(=N)N)C(N)=O)C(C)C)[C@@H](C)CC
B4: AT259 (peptide)
peptide: SGTFISDYSIAMDRIK(C16 diacid)QQDFVNWLLAQR-OH
modifications: N-terminus assumed
SMILES: CC[C@H](C)[C@H](NC(=O)[C@H](CO)NC(=O)[C@H](Cc1ccc(O)cc1)NC(=O)[C@H](CC(=O)O)NC(=O)[C@H](CO)NC(=O)[C@@H](NC(=O)[C@H](Cc1ccccc1)NC(=O)[C@@H](NC(=O)CNC(=O)[C@@H](N)CO)[C@@H](C)O)[C@@H](C)CC)C(=O)N[C@@H](C)C(=O)N[C@@H](CCSC)C(=O)N[C@@H](CC(=O)O)C(=O)N[C@@H](CCCNC(=N)N)C(=O)N[C@H](C(=O)N[C@@H](CCCCNC(=O)CCCCCCCCCCCCCCC(=O)O)C(=O)N[C@@H](CCC(N)=O)C(=O)N[C@@H](CCC(N)=O)C(=O)N[C@@H](CC(=O)O)C(=O)N[C@@H](Cc1ccccc1)C(=O)N[C@H](C(=O)N[C@@H](CC(N)=O)C(=O)N[C@@H](Cc1c[nH]c2ccccc12)C(=O)N[C@@H](CC(C)C)C(=O)N[C@@H](CC(C)C)C(=O)N[C@@H](C)C(=O)N[C@@H](CCC(N)=O)C(=O)N[C@@H](CCCNC(=N)N)C(=O)O)C(C)C)[C@@H](C)CC

For the assay, the target named is T1, human GIP receptor. In words: cell-based or functional assay.
As to EGTFISDYSIAMDRIK([AEEA-AEEA-γGlu-C18 diacid])QQDFVNWLLAQR-NH2 (not fully specified (residue 1)) [AT377], the “CisBio cAMP agonism % Efficacy” value was determined as 0%, the “CisBio cAMP antagonism % inhib” value turned out to be 90%, the “CisBio cAMP antagonism IC50” value came out at 18.5 nM and the “CisBio cAMP antagonism pIC50” value came out at 7.7. The “DiscoveRx cAMP antagonism % inhib” value came out at 100%, the “DiscoveRx cAMP antagonism IC50” value is 19 nM and the “DiscoveRx cAMP antagonism log IC50” value was -7.7 log M.

EGTFISDYSIAMDRIK([AEEA-AEEA-γGlu-C16 diacid])QQDFVNWLLAQR-NH2 (not fully specified (residue 1)) [AT374]: the “CisBio cAMP agonism % Efficacy” value was 0%, the “CisBio cAMP antagonism % inhib” value is 86%, the “CisBio cAMP antagonism IC50” value was found to be 17.1 nM and the “CisBio cAMP antagonism pIC50” value is 7.8. The “DiscoveRx cAMP antagonism % inhib” value was 100%, the “DiscoveRx cAMP antagonism IC50” value was found to be 12 nM and the “DiscoveRx cAMP antagonism log IC50” value is -7.9 log M.

For B1, the “CisBio cAMP agonism % Efficacy” value was 0%, the “CisBio cAMP antagonism % inhib” value was 66%, the “CisBio cAMP antagonism IC50” value was 39.8 nM and the “CisBio cAMP antagonism pIC50” value came out at 7.4. The “DiscoveRx cAMP agonism Emax” value amounted to 26, the “DiscoveRx cAMP antagonism IC50” value was found to be 16 nM and the “DiscoveRx cAMP antagonism log IC50” value was -7.8 log M.

For B2, the “CisBio cAMP agonism % Efficacy” value stood at 4%, the “CisBio cAMP antagonism % inhib” value is 52%, the “CisBio cAMP antagonism IC50” value was determined as 736 nM and the “CisBio cAMP antagonism pIC50” value amounted to 6.1. Further, the “DiscoveRx cAMP agonism Emax” value is 16, the “DiscoveRx cAMP antagonism IC50” value worked out at 123 nM and the “DiscoveRx cAMP antagonism log IC50” value is -6.9 log M.

Regarding B3, the “CisBio cAMP agonism % Efficacy” value was determined as 0%, the “CisBio cAMP antagonism % inhib” value was 70%, the “CisBio cAMP antagonism IC50” value turned out to be 34.2 nM and the “CisBio cAMP antagonism pIC50” value came out at 7.5. Also, the “DiscoveRx cAMP agonism Emax” value was 28, the “DiscoveRx cAMP antagonism IC50” value came to 32 nM and the “DiscoveRx cAMP antagonism log IC50” value was -7.5 log M.

For EGTFISDYSIAMDRIK([AEEA-γGlu-C18 diacid])QQDFVNWLLAQR-NH2 (not fully specified (residue 1)) [AT376], the “CisBio cAMP agonism % Efficacy” value was determined as 0%, the “CisBio cAMP antagonism % inhib” value worked out at 87%, the “CisBio cAMP antagonism IC50” value stood at 6.81 nM and the “CisBio cAMP antagonism pIC50” value worked out at 8.2. For the same molecule, the “DiscoveRx cAMP antagonism % inhib” value came out at 90%, the “DiscoveRx cAMP antagonism IC50” value amounted to 19 nM and the “DiscoveRx cAMP antagonism log IC50” value was -7.7 log M.

Take EGTFISDYSIAMDRIK([AEEA-AEEA-AEEA-γGlu-C18 diacid])QQDFVNWLLAQR-NH2 (not fully specified (residue 1)) [AT378]: the “CisBio cAMP agonism % Efficacy” value was found to be 0%, the “CisBio cAMP antagonism % inhib” value worked out at 90%, the “CisBio cAMP antagonism IC50” value stood at 11.7 nM and the “CisBio cAMP antagonism pIC50” value came to 7.9. Further, the “DiscoveRx cAMP antagonism % inhib” value is 92%, the “DiscoveRx cAMP antagonism IC50” value came out at 16 nM and the “DiscoveRx cAMP antagonism log IC50” value is -7.8 log M.

Take B4: the “CisBio cAMP agonism % Efficacy” value amounted to 9%, the “CisBio cAMP antagonism % inhib” value came out at 72%, the “CisBio cAMP antagonism IC50” value amounted to 58.4 nM and the “CisBio cAMP antagonism pIC50” value came to 7.2. Moreover, the “DiscoveRx cAMP agonism Emax” value was determined as 20, the “DiscoveRx cAMP antagonism IC50” value is 19 nM and the “DiscoveRx cAMP antagonism log IC50” value was -7.7 log M.

For EGTFISDYSIAMDRIK([AEEA-AEEA-AEEA-γGlu-C16 diacid])QQDFVNWLLAQR-NH2 (not fully specified (residue 1)) [AT375], the “CisBio cAMP agonism % Efficacy” value was determined as 6%, the “CisBio cAMP antagonism % inhib” value is 83%, the “CisBio cAMP antagonism IC50” value came out at 23.3 nM and the “CisBio cAMP antagonism pIC50” value worked out at 7.6. The “DiscoveRx cAMP antagonism % inhib” value was found to be 100%, the “DiscoveRx cAMP antagonism IC50” value was found to be 22 nM and the “DiscoveRx cAMP antagonism log IC50” value is -7.7 log M.
